Article PMC12487890

Experiments:
[1] = molecular target: interferon-induced transmembrane protein 3 (IFITM3), human, untagged (UniProt Q01628); assay: proximity ligation assay (anti-IFITM3 and anti-HA, confocal microscopy); conditions: HEK293T cells transfected with pCMV-IFITM3 (0.50 μg) and pBJ-97ZANef-HA WT or mutant (0.25 μg); mean of 6 to 12 cells per condition; parent: 20,209
[2] = molecular target: interferon-induced transmembrane protein 3 (IFITM3), human, untagged (UniProt Q01628); assay: co-immunoprecipitation (anti-HA IP, anti-IFITM3 immunoblot), IFITM3/HA band ratio; conditions: mean of two co-IPs from independent transfections
[3] = HEK293T cells cotransfected with pCMV-IFITM3 (0.50 μg) and pBJ-97ZANef-HA WT or mutant (0.25 μg)
[4] = HEK293T cells cotransfected with pCMV-IFITM3 (0.50 μg) and pBJ-97ZA Nef-HA WT or mutant (0.25 μg), parent: 100

Sequence of UniProt Q01628 (Q01628 whole entry): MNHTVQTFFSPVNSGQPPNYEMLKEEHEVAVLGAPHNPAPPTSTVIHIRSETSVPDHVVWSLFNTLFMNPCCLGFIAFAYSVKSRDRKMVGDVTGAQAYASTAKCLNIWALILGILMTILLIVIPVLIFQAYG

Substance	response (corrected total cell fluorescence) [1]	percent of parent [2, 3] [%]	percent of parent [2, 4] [%]
97ZA013 Nef-HA, wild type (HIV-1 clade C primary isolate) M20A	17200	124	–
97ZA013 Nef-HA, wild type (HIV-1 clade C primary isolate) S152D; E153K	–	–	42
97ZA013 Nef-HA, wild type (HIV-1 clade C primary isolate) L165A; L166A	12000	87	–
97ZA013 Nef-HA, wild type (HIV-1 clade C primary isolate) E153K	–	–	73
97ZA013 Nef-HA, wild type (HIV-1 clade C primary isolate) N163T; C164S	–	–	217
97ZA013 Nef-HA, wild type (HIV-1 clade C primary isolate) G2A	3000	1	–
97ZA013 Nef-HA, wild type (HIV-1 clade C primary isolate) M169V; Q171L	–	–	244
97ZA013 Nef-HA, wild type (HIV-1 clade C primary isolate) R17A; R19A; R21A; R22A	7580	16	–
97ZA013 Nef-HA, wild type (HIV-1 clade C primary isolate) R192F; R193H	–	–	188
